B1: His-RnlA (wild-type RnlA toxin, N-terminally His-tagged) (enzyme)
chain: MTIRSYKNLNLVRANIETESRQFIENKNYSIQSIGPMPGSRAGLRVVFTRPGVNLATVDIFYNGDGSTTIQYLTGANRSLGQELADHLFETINPAEFEQVNMVLQGFVETSVLPVLELSADESHIEFREHSRNAHTVVWKIISTSYQDELTVSLHITTGKLQIQGRPLSCYRVFTFNLAALLDLQGLEKVLIRQEDGKANIVQQEVARTYLQTVMADAYPHLHVTAEKLLVSGLCVKLAAPDLPDYCMLLYPELRTIEGVLKSKMSGLGMPVQQPAGFGTYFDKPAAHYILKPQFAATLRPEQINIISTAYTFFNVERHSLFHMETVVDASRMISDMARLMGKATRAWGIIKDLYIV
B2: RnlAΔ1–91 (TBP2-HEPN) truncated RnlA, N-terminally His-tagged (domain or fragment, Escherichia coli, UniProt P52129 92-357, looked up)
chain: INPAEFEQVNMVLQGFVETSVLPVLELSADESHIEFREHSRNAHTVVWKIISTSYQDELTVSLHITTGKLQIQGRPLSCYRVFTFNLAALLDLQGLEKVLIRQEDGKANIVQQEVARTYLQTVMADAYPHLHVTAEKLLVSGLCVKLAAPDLPDYCMLLYPELRTIEGVLKSKMSGLGMPVQQPAGFGTYFDKPAAHYILKPQFAATLRPEQINIISTAYTFFNVERHSLFHMETVVDASRMISDMARLMGKATRAWGIIKDLYIV
B3: R255A RnlA, N-terminally His-tagged (enzyme, Escherichia coli, UniProt P52129 1-357, looked up)
chain: MTIRSYKNLNLVRANIETESRQFIENKNYSIQSIGPMPGSRAGLRVVFTRPGVNLATVDIFYNGDGSTTIQYLTGANRSLGQELADHLFETINPAEFEQVNMVLQGFVETSVLPVLELSADESHIEFREHSRNAHTVVWKIISTSYQDELTVSLHITTGKLQIQGRPLSCYRVFTFNLAALLDLQGLEKVLIRQEDGKANIVQQEVARTYLQTVMADAYPHLHVTAEKLLVSGLCVKLAAPDLPDYCMLLYPELATIEGVLKSKMSGLGMPVQQPAGFGTYFDKPAAHYILKPQFAATLRPEQINIISTAYTFFNVERHSLFHMETVVDASRMISDMARLMGKATRAWGIIKDLYIV
B4: D245R RnlA, N-terminally His-tagged (enzyme, Escherichia coli, UniProt P52129 1-357, looked up)
chain: MTIRSYKNLNLVRANIETESRQFIENKNYSIQSIGPMPGSRAGLRVVFTRPGVNLATVDIFYNGDGSTTIQYLTGANRSLGQELADHLFETINPAEFEQVNMVLQGFVETSVLPVLELSADESHIEFREHSRNAHTVVWKIISTSYQDELTVSLHITTGKLQIQGRPLSCYRVFTFNLAALLDLQGLEKVLIRQEDGKANIVQQEVARTYLQTVMADAYPHLHVTAEKLLVSGLCVKLAAPDLPRYCMLLYPELRTIEGVLKSKMSGLGMPVQQPAGFGTYFDKPAAHYILKPQFAATLRPEQINIISTAYTFFNVERHSLFHMETVVDASRMISDMARLMGKATRAWGIIKDLYIV

Target: the molecule itself
Assay: SAXS

Protein	stoichiometry N
B1	2
B2	2
B3	2
B4	2
